Data from patent US20240024520A1, “AUTONOMOUS KNOB DOMAIN PEPTIDES” (UCB BIOPHARMA SRL, priority 2020, published 2024).
Values joined by “and” are separate entries in the source; they are usually repeats but may differ in a detail not shown here. Identical values can stand only once. Like-named read-outs stand apart in the source and are kept apart here.

How the values were obtained:
[1] = target: human complement component C5 (human), P01031
[2] = target: human complement component C5 (human), P01031; remark: listed apart in the source
[3] = target: human complement component C5 (human), P01031; test: SPR multi-cycle kinetics
[4] = target: human complement component C5 (human), P01031; remark: listed apart in the source
[5] = target: human complement component C5 (human), P01031; remark: listed apart in the source

human complement component C5 (human), P01031, sequence (P01031 19-673 limits assumed, chain 1 of 2): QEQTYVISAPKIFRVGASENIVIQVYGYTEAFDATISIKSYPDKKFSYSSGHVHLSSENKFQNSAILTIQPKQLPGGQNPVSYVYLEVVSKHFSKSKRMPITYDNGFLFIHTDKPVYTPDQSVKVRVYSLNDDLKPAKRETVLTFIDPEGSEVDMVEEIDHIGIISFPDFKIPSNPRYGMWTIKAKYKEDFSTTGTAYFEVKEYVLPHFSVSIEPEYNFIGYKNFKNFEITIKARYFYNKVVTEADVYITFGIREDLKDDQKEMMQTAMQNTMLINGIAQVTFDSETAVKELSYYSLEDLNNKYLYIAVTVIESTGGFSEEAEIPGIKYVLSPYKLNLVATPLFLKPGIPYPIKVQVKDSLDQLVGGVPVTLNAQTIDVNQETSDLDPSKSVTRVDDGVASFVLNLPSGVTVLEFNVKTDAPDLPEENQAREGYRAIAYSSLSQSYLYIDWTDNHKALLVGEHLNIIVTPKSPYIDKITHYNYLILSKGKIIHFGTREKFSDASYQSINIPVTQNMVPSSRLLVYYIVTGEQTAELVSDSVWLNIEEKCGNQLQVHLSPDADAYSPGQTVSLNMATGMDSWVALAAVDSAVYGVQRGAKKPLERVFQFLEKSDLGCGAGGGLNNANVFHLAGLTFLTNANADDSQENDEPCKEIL
human complement component C5 (human), P01031, sequence (P01031 678-1676 limits assumed, chain 2 of 2): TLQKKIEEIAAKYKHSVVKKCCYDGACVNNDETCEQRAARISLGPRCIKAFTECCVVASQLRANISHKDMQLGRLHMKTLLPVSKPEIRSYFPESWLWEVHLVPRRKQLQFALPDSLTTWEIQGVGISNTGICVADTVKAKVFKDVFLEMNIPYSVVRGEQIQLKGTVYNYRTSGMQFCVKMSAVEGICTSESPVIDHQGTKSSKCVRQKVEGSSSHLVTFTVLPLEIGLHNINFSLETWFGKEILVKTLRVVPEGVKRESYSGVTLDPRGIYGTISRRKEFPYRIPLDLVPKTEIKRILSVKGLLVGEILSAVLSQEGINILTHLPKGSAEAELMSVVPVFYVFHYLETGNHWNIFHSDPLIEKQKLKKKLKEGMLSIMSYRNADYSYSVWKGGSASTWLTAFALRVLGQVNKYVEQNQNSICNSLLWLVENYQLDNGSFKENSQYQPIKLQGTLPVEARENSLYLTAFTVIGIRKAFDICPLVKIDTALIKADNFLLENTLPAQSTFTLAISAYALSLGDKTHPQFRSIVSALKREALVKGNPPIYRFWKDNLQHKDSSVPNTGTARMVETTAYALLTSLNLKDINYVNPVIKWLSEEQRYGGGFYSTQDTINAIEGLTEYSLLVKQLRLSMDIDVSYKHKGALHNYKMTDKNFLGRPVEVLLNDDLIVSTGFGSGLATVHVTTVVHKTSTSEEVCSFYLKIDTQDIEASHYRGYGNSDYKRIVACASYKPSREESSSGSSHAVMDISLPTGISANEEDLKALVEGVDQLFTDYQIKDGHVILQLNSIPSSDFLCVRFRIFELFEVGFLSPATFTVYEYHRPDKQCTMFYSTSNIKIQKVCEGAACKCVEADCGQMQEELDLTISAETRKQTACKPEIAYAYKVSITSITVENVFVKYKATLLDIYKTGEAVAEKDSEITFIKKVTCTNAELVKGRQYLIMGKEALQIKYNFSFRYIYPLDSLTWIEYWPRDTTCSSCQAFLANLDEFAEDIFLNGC

| Binder | Kd [1] [nM] | Ki [2] [nM] | fold lower affinity than K149chemSD-A [3] [fold] | Kd [4] [nM] | koff [4] [s⁻¹] | kon [4] [M⁻¹ s⁻¹] | Kd [5] [nM] | koff [5] [s⁻¹] | kon [5] [M⁻¹ s⁻¹] | IC50 [2] |
| --- | --- | --- | --- | --- | --- | --- | --- | --- | --- | --- |
| GSGSCPDGFSYRSWDDFCCPMVGRCLAPRNGSENLYFQ (modifications not checked) [K149 knob domain peptide cleaved from the 645 Fab] | 36.5 | 26.7 | – | – | – | – | – | – | – | – |
| SCPDGFSYRSWDDFCCPMVGRCLAPRN (modifications not checked) [K149B knob domain peptide, chemically synthesised, site-directed disulphides] | – | – | 35 | 246 | 0.00732 | 29700 | 269 | 0.00417 | 15600 | – |
| SCPDGFSYRSWDDFCCPMVGRCLAPRN (modifications not checked) [K149chemFE knob domain peptide] | – | – | – | – | – | – | 5.57 | 0.00448 | 861000 | – |
| GSTCPDNYREVDGCDPYDCCLTTWCTNSYCTRYIENLYFQ (modifications not checked) [K136 knob domain peptide cleaved from the 645 Fab] | 6.4 | 18.9 | – | – | – | – | – | – | – | 44.9 nM and 31.2 nM |
| SCPDGFSYRSWDDFCCPMVGRCLAPRNGS (modifications not checked) [K149 knob domain peptide, chemically synthesised, free energy method (Example 4)] | – | – | – | 4.46 | 0.00685 | 1.54e+06 | – | – | – | – |
